In patent publication CN116199779A (BEIJING DONGFANG BIOTECH CO LTD; BEIJING JINGYI TAIXIANG …, dated 2023):
Like-named read-outs stand apart in the source and are kept apart here.

What was measured:
THP-1细胞表面的LILRB4 [1] = molecular target: T1, THP-1细胞表面的LILRB4 (human, UniProt Q8NHJ6 22-448); test: cell-based or functional assay
LILRA1 [2] = molecular target: T2, LILRA1 (UniProt O75019 17-461, limits assumed); test: ELISA, coated protein 100ng/well
T2 construct: construct not described

LILRA2 [3] = molecular target: T3, LILRA2 (UniProt Q8N149 24-449, limits assumed); test: ELISA, coated protein 100ng/well
T3 construct: construct not described

LILRA3 [4] = molecular target: T4, LILRA3 (UniProt Q8N6C8 24-439); test: ELISA, coated protein 100ng/well
T4 construct: construct not described

LILRA4 [5] = molecular target: T5, LILRA4 (UniProt P59901 24-446, limits assumed); test: ELISA, coated protein 100ng/well
T5 construct: construct not described

LILRA5 [6] = molecular target: T6, LILRA5 (UniProt A6NI73 42-268, limits assumed); test: ELISA, coated protein 100ng/well
T6 construct: construct not described

LILRA6 [7] = molecular target: T7, LILRA6 (UniProt Q6PI73 24-447, limits assumed); test: ELISA, coated protein 100ng/well
T7 construct: construct not described

LILRB1 [8] = molecular target: T8, LILRB1 (UniProt Q8NHL6 24-461, limits assumed); test: ELISA, coated protein 100ng/well
T8 construct: construct not described

LILRB2 [9] = molecular target: T9, LILRB2 (UniProt Q8N423 22-460, limits assumed); test: ELISA, coated protein 100ng/well
T9 construct: construct not described

LILRB3 [10] = molecular target: T10, LILRB3 (UniProt O75022 24-443, limits assumed); test: ELISA, coated protein 100ng/well
T10 construct: construct not described

LILRB5 [11] = molecular target: T11, LILRB5 (UniProt O75023 24-458, limits assumed); test: ELISA, coated protein 100ng/well
T11 construct: construct not described

LILRB4抗原 (人LILRB4蛋白胞外段) [12] = molecular target: T12, LILRB4抗原 (人LILRB4蛋白胞外段) (human, UniProt Q8NHJ6 22-259); test: ELISA, coated LILRB4, anti-mouse IgG-HRP
T12 construct: extracellular domain; also called 白细胞免疫球蛋白样受体亚家族B成员4

LILRB4抗原 (人LILRB4蛋白胞外段) [13] = molecular target: T12, LILRB4抗原 (人LILRB4蛋白胞外段); test: ELISA, coated protein 100ng/well, antibody 50μg/mL
LILRA1 [14] = molecular target: T2, LILRA1; test: ELISA, coated protein 100ng/well, antibody 50μg/mL
LILRA2 [15] = molecular target: T3, LILRA2; test: ELISA, coated protein 100ng/well, antibody 50μg/mL
LILRA3 [16] = molecular target: T4, LILRA3; test: ELISA, coated protein 100ng/well, antibody 50μg/mL
LILRA4 [17] = molecular target: T5, LILRA4; test: ELISA, coated protein 100ng/well, antibody 50μg/mL
LILRA5 [18] = molecular target: T6, LILRA5; test: ELISA, coated protein 100ng/well, antibody 50μg/mL
LILRA6 [19] = molecular target: T7, LILRA6; test: ELISA, coated protein 100ng/well, antibody 50μg/mL
LILRB1 [20] = molecular target: T8, LILRB1; test: ELISA, coated protein 100ng/well, antibody 50μg/mL
LILRB2 [21] = molecular target: T9, LILRB2; test: ELISA, coated protein 100ng/well, antibody 50μg/mL
LILRB3 [22] = molecular target: T10, LILRB3; test: ELISA, coated protein 100ng/well, antibody 50μg/mL
LILRB5 [23] = molecular target: T11, LILRB5; test: ELISA, coated protein 100ng/well, antibody 50μg/mL
THP-1细胞表面的LILRB4 [24] = molecular target: T1, THP-1细胞表面的LILRB4; test: flow cytometry on THP-1 cells, FITC anti-mouse IgG
THP-1细胞表面的LILRB4 [25] = molecular target: T1, THP-1细胞表面的LILRB4; test: flow cytometry competition on THP-1 cells; competitor FITC-labelled ApoE
THP-1细胞表面的LILRB4 [26] = molecular target: T1, THP-1细胞表面的LILRB4; test: cell-based or functional assay; remark: listed apart in the source
THP-1细胞表面的LILRB4 [27] = molecular target: T1, THP-1细胞表面的LILRB4; test: cell-based or functional assay; remark: listed apart in the source
THP-1细胞表面的LILRB4 [28] = molecular target: T1, THP-1细胞表面的LILRB4; test: flow cytometry on THP-1 cells
LILRB4抗原 (人LILRB4蛋白胞外段) [29] = molecular target: T12, LILRB4抗原 (人LILRB4蛋白胞外段); test: ELISA, coated LILRB4, anti-human IgG-HRP
THP-1细胞表面的LILRB4 [30] = molecular target: T1, THP-1细胞表面的LILRB4; test: flow cytometry competition on THP-1 cells; competitor FITC-labelled ApoE; remark: listed apart in the source

T8 sequence (Q8NHL6 24-461 limits assumed): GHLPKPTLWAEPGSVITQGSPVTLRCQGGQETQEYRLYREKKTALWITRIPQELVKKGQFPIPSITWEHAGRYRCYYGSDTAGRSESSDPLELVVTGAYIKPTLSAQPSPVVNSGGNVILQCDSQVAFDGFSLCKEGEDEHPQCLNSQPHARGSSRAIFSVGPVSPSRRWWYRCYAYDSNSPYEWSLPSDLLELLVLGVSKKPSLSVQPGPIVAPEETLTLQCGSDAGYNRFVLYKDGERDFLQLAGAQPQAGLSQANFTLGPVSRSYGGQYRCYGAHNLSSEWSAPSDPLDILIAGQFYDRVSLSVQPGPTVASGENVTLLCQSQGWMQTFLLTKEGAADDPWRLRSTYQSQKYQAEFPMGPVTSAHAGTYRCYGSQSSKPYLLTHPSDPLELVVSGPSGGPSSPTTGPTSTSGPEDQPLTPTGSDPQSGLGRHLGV
T7 sequence (Q6PI73 24-447 limits assumed): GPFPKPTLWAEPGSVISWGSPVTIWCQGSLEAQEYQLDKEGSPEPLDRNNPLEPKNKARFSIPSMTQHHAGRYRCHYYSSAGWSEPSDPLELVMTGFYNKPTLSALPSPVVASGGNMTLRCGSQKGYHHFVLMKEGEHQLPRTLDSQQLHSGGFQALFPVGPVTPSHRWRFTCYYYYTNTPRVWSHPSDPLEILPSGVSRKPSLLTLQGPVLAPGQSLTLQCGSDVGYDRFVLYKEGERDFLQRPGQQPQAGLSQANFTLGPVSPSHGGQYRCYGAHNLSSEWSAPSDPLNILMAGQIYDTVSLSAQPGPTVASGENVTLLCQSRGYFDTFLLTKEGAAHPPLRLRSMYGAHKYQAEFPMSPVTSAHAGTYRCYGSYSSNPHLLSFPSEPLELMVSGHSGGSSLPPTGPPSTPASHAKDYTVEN
T4 sequence (Q8N6C8 24-439 limits assumed): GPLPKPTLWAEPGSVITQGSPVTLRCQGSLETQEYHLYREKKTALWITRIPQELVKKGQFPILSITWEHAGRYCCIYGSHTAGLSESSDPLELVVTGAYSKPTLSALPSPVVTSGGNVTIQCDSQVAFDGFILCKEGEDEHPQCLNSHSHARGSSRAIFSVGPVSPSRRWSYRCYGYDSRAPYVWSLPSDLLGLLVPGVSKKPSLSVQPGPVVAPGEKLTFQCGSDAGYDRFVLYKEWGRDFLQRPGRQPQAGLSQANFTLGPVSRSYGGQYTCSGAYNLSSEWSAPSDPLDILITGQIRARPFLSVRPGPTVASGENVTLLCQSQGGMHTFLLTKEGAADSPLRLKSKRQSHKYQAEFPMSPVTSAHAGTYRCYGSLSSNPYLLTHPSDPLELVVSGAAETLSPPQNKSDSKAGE
T2 sequence (O75019 17-461 limits assumed): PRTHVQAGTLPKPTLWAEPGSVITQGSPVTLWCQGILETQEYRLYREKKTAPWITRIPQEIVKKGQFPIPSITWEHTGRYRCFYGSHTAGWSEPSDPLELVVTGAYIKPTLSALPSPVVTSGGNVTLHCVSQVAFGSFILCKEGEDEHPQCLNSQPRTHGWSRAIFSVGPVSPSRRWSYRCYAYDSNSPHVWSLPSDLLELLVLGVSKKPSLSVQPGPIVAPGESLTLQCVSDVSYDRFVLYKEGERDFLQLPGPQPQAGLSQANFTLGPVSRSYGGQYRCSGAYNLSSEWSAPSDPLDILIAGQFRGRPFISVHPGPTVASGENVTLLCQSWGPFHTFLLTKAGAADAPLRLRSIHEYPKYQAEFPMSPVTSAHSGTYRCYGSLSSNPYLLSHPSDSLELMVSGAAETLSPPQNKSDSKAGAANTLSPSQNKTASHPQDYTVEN
T11 sequence (O75023 24-458 limits assumed): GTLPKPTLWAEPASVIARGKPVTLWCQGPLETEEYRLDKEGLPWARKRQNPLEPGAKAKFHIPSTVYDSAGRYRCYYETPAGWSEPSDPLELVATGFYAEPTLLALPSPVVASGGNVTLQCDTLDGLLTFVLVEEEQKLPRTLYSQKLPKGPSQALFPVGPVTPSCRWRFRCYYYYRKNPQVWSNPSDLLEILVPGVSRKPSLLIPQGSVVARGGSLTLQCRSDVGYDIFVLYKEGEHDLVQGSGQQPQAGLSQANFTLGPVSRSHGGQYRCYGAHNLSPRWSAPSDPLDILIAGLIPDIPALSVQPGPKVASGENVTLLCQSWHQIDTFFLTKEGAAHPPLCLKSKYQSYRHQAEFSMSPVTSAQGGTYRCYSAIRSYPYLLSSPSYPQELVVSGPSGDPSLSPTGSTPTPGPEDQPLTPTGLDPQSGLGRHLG
T3 sequence (Q8N149 24-449 limits assumed): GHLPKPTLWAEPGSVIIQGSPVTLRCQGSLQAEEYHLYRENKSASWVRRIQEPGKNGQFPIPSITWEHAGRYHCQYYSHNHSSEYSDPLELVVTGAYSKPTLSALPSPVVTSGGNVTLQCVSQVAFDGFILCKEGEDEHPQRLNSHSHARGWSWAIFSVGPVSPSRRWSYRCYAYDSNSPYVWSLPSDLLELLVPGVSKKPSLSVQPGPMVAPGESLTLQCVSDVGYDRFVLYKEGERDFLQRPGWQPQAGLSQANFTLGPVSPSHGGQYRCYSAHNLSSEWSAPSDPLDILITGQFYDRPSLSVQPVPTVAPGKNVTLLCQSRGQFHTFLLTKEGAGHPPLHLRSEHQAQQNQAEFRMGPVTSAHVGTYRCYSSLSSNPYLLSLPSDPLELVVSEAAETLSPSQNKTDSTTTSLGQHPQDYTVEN
T9 sequence (Q8N423 22-460 limits assumed): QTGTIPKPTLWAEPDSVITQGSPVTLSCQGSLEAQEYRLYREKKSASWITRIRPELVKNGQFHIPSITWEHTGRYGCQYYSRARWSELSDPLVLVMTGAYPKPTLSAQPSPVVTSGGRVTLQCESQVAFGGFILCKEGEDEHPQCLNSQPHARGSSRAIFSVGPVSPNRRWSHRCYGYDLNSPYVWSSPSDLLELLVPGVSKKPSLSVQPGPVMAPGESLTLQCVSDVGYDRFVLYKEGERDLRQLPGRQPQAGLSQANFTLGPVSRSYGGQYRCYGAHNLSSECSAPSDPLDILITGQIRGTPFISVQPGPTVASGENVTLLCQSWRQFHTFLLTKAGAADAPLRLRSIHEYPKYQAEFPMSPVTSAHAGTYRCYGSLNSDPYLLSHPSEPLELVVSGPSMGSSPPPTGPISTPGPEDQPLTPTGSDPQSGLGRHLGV
T10 sequence (O75022 24-443 limits assumed): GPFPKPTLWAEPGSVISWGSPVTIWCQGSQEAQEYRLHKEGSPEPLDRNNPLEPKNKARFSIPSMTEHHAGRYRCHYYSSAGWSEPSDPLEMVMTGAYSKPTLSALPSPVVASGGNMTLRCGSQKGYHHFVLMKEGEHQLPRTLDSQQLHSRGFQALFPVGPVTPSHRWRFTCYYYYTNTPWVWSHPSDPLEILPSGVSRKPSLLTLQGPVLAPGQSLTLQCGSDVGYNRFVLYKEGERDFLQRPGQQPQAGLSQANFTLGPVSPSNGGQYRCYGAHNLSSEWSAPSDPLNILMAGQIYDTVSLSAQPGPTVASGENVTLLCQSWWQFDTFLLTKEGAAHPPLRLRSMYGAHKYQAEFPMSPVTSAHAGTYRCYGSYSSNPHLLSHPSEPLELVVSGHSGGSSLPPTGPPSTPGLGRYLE
T6 sequence (A6NI73 42-268 limits assumed): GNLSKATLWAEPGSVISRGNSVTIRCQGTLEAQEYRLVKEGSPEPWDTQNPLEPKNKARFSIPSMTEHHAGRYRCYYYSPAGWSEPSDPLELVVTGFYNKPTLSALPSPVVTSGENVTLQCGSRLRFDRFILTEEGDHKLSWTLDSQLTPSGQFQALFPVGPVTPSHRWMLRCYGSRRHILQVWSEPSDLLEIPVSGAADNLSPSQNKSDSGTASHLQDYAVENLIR
T5 sequence (P59901 24-446 limits assumed): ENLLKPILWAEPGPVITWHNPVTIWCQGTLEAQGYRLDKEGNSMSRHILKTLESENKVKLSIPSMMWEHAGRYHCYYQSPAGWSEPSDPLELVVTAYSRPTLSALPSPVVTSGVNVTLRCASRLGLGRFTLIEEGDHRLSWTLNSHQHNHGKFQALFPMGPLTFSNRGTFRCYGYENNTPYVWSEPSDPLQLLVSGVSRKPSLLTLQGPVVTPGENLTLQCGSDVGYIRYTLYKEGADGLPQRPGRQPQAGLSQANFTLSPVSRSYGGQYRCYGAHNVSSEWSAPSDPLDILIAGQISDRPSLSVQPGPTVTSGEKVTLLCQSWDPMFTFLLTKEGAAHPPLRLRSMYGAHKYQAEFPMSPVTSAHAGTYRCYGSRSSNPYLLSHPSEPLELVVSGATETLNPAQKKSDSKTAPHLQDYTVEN

B1: MA-Ⅰ 鼠源抗LILRB4单克隆抗体 (mouse IgG1, Ck) (antibody)
heavy: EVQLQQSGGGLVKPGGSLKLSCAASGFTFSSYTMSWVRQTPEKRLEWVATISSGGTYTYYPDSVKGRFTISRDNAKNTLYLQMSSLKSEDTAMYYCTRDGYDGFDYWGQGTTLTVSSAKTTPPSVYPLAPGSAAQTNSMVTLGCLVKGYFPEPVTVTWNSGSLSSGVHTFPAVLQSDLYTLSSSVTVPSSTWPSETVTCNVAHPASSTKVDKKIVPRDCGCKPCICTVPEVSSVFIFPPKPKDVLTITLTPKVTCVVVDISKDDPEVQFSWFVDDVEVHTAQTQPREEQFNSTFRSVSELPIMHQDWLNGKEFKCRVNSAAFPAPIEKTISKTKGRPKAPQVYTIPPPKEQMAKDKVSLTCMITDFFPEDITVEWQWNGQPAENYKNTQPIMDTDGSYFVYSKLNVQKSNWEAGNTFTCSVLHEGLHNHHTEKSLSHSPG
light: DIVMTQTTLSLPVSPGDQASISCRSSQSLAHSNGNTYLHWYLQKPGQSPKLLIYKVSNRFSGVPDRFSGSGSGTDFTLKISRVEAEDLGVYFCSQSTLVPTFGGGTKLEIKADAAPTVSIFPPSSEQLTSGGASVVCFLNNFYPKDINVKWKIDGSERQNGVLNSWTDQDSKDSTYSMSSTLTLTKDEYERHNSYTCEATHKTSTSPIVKSFNRNEC
notes: also called MA-I; 鼠源抗体MA-Ⅰ
In the case of B1, the “IC50 of inhibition of ARG1 secretion by THP-1 cells with ApoE (arginase activity)” value (“IC50 of inhibition of ARG1 secretion” for short) (THP-1细胞表面的LILRB4 [1]) is reported as 23.9 µg/mL, the binding result (LILRA1 [2]) is reported as “no binding (tested: 50μg/mL)” and the binding result (LILRA2 [3]) is reported as “no binding (tested: 50μg/mL)”. B1: no binding (tested: 50μg/mL) (LILRA3 [4]); no binding (tested: 50μg/mL) (LILRA4 [5]); no binding (tested: 50μg/mL) (LILRA5 [6]). B1: no binding (tested: 50μg/mL) (LILRA6 [7]); no binding (tested: 50μg/mL) (LILRB1 [8]); no binding (tested: 50μg/mL) (LILRB2 [9]). The binding result (LILRB3 [10]) was “no binding (tested: 50μg/mL)”, the binding result (LILRB5 [11]) was “no binding (tested: 50μg/mL)” and the EC50 (LILRB4抗原 (人LILRB4蛋白胞外段) [12]) was 0.00835 µg/mL. For the same binder, the “OD 450nm/630nm” value (LILRB4抗原 (人LILRB4蛋白胞外段) [13]) was 2.97 OD, the “OD 450nm/630nm” value (LILRA1 [14]) was 0.12 OD and the “OD 450nm/630nm” value (LILRA2 [15]) was 0.083 OD. The “OD 450nm/630nm” value (LILRA3 [16]) was 0.068 OD, the “OD 450nm/630nm” value (LILRA4 [17]) was 0.092 OD and the “OD 450nm/630nm” value (LILRA5 [18]) was 0.077 OD. The “OD 450nm/630nm” value (LILRA6 [19]) was 0.054 OD, the “OD 450nm/630nm” value (LILRB1 [20]) was 0.064 OD and the “OD 450nm/630nm” value (LILRB2 [21]) was 0.036 OD. The “OD 450nm/630nm” value (LILRB3 [22]) was 0.072 OD, the “OD 450nm/630nm” value (LILRB5 [23]) was 0.197 OD and the EC50 (THP-1细胞表面的LILRB4 [24]) was 0.306 µg/mL. For the same binder, the IC50 (THP-1细胞表面的LILRB4 [25]) was 0.204 µg/mL.

B2: MB-Ⅰ 鼠源抗LILRB4单克隆抗体 (mouse IgG1, Ck) (antibody)
heavy: QVQLQESGAELVKPGASVKLSCKASGYTFTNYWMHWVKQRPGQGLEWIGEINPSNGRTNYNEKFKTKATLTVDKSSSTAYMQLSSLTSEDSAVYYCARWGQLGLREGYYAVDYWGQGTSVTVSSAKTTPPSVYPLAPGSAAQTNSMVTLGCLVKGYFPEPVTVTWNSGSLSSGVHTFPAVLQSDLYTLSSSVTVPSSTWPSETVTCNVAHPASSTKVDKKIVPRDCGCKPCICTVPEVSSVFIFPPKPKDVLTITLTPKVTCVVVDISKDDPEVQFSWFVDDVEVHTAQTQPREEQFNSTFRSVSELPIMHQDWLNGKEFKCRVNSAAFPAPIEKTISKTKGRPKAPQVYTIPPPKEQMAKDKVSLTCMITDFFPEDITVEWQWNGQPAENYKNTQPIMDTDGSYFVYSKLNVQKSNWEAGNTFTCSVLHEGLHNHHTEKSLSHSPG
light: DIVMTQSPSSLSASLGDRVTISCRASQDISNYLNWYQQKPDGTVKLLIYYTSRLHSGVPSRFSGSGSGTDYSLTISNLEQEDIATYFCQQGNTLPPTFGGGTKLEIKADAAPTVSIFPPSSEQLTSGGASVVCFLNNFYPKDINVKWKIDGSERQNGVLNSWTDQDSKDSTYSMSSTLTLTKDEYERHNSYTCEATHKTSTSPIVKSFNRNEC
notes: also called MB-I; 鼠源抗体MB-Ⅰ
In the case of B2, the “IC50 of inhibition of ARG1 secretion” value (THP-1细胞表面的LILRB4 [1]) is reported as 46 µg/mL, the binding result (LILRA1 [2]) is reported as “no binding (tested: 50μg/mL)” and the binding result (LILRA2 [3]) is reported as “no binding (tested: 50μg/mL)”. B2: no binding (tested: 50μg/mL) (LILRA3 [4]); no binding (tested: 50μg/mL) (LILRA4 [5]); no binding (tested: 50μg/mL) (LILRA5 [6]). B2: no binding (tested: 50μg/mL) (LILRA6 [7]); no binding (tested: 50μg/mL) (LILRB1 [8]); no binding (tested: 50μg/mL) (LILRB2 [9]). For the same binder, the binding result (LILRB3 [10]) was “no binding (tested: 50μg/mL)”, the binding result (LILRB5 [11]) was “no binding (tested: 50μg/mL)” and the EC50 (LILRB4抗原 (人LILRB4蛋白胞外段) [12]) was 0.0128 µg/mL. For the same binder, the “OD 450nm/630nm” value (LILRB4抗原 (人LILRB4蛋白胞外段) [13]) was 2.9 OD, the “OD 450nm/630nm” value (LILRA1 [14]) was 0.022 OD and the “OD 450nm/630nm” value (LILRA2 [15]) was 0.024 OD. The “OD 450nm/630nm” value (LILRA3 [16]) was 0.056 OD, the “OD 450nm/630nm” value (LILRA4 [17]) was 0.028 OD and the “OD 450nm/630nm” value (LILRA5 [18]) was 0.045 OD. The “OD 450nm/630nm” value (LILRA6 [19]) was 0.026 OD, the “OD 450nm/630nm” value (LILRB1 [20]) was 0.038 OD and the “OD 450nm/630nm” value (LILRB2 [21]) was 0.055 OD. For the same binder, the “OD 450nm/630nm” value (LILRB3 [22]) was 0.022 OD, the “OD 450nm/630nm” value (LILRB5 [23]) was 0.016 OD and the EC50 (THP-1细胞表面的LILRB4 [24]) was 0.351 µg/mL. The IC50 (THP-1细胞表面的LILRB4 [25]) was 0.44 µg/mL.

B3: 人源化抗体HA-Ⅱ (human IgG1, Ck) (antibody, V domains shown)
VH: EVQLVESGGGLVKPGGSLRLSCAASGFTFSSYTMSWVRQAPGKGLEWVATISSGGTYTYYPDSVKGRFTISRDNAKNSLYLQMNSLRAEDTAVYYCARDGYDGFDYWGQGTTVTVSS
VL: DIVMTQTPLSLSVTPGQPASISCRSSQSLAHSNGNTYLHWYLQKPGQSPQLLIYKVSNRFSGVPDRFSGSGSGTDFTLKISRVEAEDVGVYFCSQSTHVPTFGGGTKVEIKR
notes: also called HA-II
With B3 the “IC50 of inhibition of ARG1 secretion” value (THP-1细胞表面的LILRB4 [26]) was 250 µg/mL, the “IC50, NF-κB luciferase reporter in THP-1-NF-κB-Luc cells stimulated with ApoE” value (THP-1细胞表面的LILRB4 [27]) was 2.68 µg/mL and the EC50 (THP-1细胞表面的LILRB4 [28]) was 0.179 µg/mL. The EC50 (LILRB4抗原 (人LILRB4蛋白胞外段) [29]) was 0.0154 µg/mL and the IC50 (THP-1细胞表面的LILRB4 [30]) was 2.75 µg/mL.

B4: 人源化抗体HA-Ⅰ (human IgG1, Ck) (antibody, V domains shown)
VH: EVQLVESGGGLVKPGGSLRLSCAASGFTFSSYTMSWVRQAPGKGLEWVSTISSGGTYTYYPDSVKGRFTISRDNAKNSLYLQMNSLRAEDTAVYYCARDGYDGFDYWGQGTTVTVSS
VL: DIVMTQTPLSLSVTPGQPASISCRSSQSLAHSNGNTYLHWYLQKPGQSPQLLIYKVSNRFSGVPDRFSGSGSGTDFTLKISRVEAEDVGVYYCSQSTHVPTFGGGTKVEIKR
notes: also called HA-I
B4 was tested, and the “IC50 of inhibition of ARG1 secretion” value (THP-1细胞表面的LILRB4 [26]) was 31.2 µg/mL, the “IC50, NF-κB luciferase reporter in THP-1-NF-κB-Luc cells stimulated with ApoE” value (THP-1细胞表面的LILRB4 [27]) was 0.756 µg/mL and the EC50 (THP-1细胞表面的LILRB4 [28]) was 0.181 µg/mL. For the same binder, the EC50 (LILRB4抗原 (人LILRB4蛋白胞外段) [29]) was 0.0174 µg/mL and the IC50 (THP-1细胞表面的LILRB4 [30]) was 0.48 µg/mL.
